{"source": "paper PMC12585912", "key": {"His67": {"target": "His67 (UniProt position 67, ENPKMHNSEIS)", "assay": "NMR", "details": "293 K per the general NMR methods, not restated for the pH titration, 150 mM ionic strength, not given for the titration (\"All buffers were controlled to 150 mM ionic strength\"), the standard NMR buffer is 20 mM Tris, 135 mM KCl, 15 mM NaCl, pH 7.3"}, "His101": {"target": "His101 (UniProt position 101, RLRALHMKEHP)", "assay": "NMR", "details": "293 K per the general NMR methods; not restated for the pH titration; 150 mM ionic strength; not given for the titration (\"All buffers were controlled to 150 mM ionic strength\"); the standard NMR buffer is 20 mM Tris, 135 mM KCl, 15 mM NaCl, pH 7.3; bound to specific FGF4 dsDNA (13-mer containing the TTGT motif)"}}, "data": [{"substance": "Transcription factor SOX-2, extended DNA-binding (HMG) domain, Sox2 31-127 (Homo sapiens)", "values": [{"measurement": "pKa", "setting": "His67; bound to specific FGF4 dsDNA (13-mer containing the TTGT motif)", "result": 6.25}, {"measurement": "pKa", "setting": "His67; free Sox2 31-127, folded", "result": 5.76}, {"measurement": "pKa", "setting": "His101", "result": 4.1}]}]}
